These results are taken from paper PMC7672607.

Common to all, as to test: flow cytometry on cells; K562/HLA-F*01:0x cells stripped of bound peptides with citrate phosphate buffer, with or without 200 µM HBB peptide (4 h, 37 °C, serum-free medium); Fc-block 20 min 4 °C; KIR3DS1-Fc 25 µg/mL, 40 min, 4 °C; detected with goat anti-human IgG Fc PE; n = 3
A general note: A flow cytometer gives signals particle by particle.

The target of assay [1] is HLA-F*01:01 on K562 cells loaded with the HBB peptide … (human | human (endogenous in K562)).
The target of assay [2] is HLA-F*01:03 on K562 cells loaded with the HBB peptide … (human | human (endogenous in K562)).
Assay [3] deals with HLA-F*01:04 on K562 cells loaded with the HBB peptide … (human | human (endogenous in K562)).

Regarding “recombinant KIR3DS1-Fc chimeric protein (from UniProt Q14943 22-340) (Fc fusion)”, the percent decrease of KIR3DS1 binding against the same cells without HBB peptide in assay [1] came to 36.2%; in assay [2], 27.9%; in assay [3] it was 16.5%.
